We go through one substance from PMC7481404.

The assay addresses PARK2 (UniProt O60260). The experiment in a line: co-IP of Flag-PARK2 and Myc-BCL-2. Particulars: reference: wild type Myc-BCL-2; sites S70.

On to BCL-2 (from UniProt P10415) S70A, for which the “binding against the reference” value is listed as “lost”.
